Reference: doi:10.1101/2024.12.05.627070
One block for each molecule: values may come before it.

What was measured:
[1] = target: Rad51 (in yeast cells) (S. cerevisiae) (UniProt P25454); assay: co-IP
[2] = target: Rad52 (295-408) (S. cerevisiae); assay: SEC-SAXS
[3] = target: T1, Rad51 (full length, recombinant) (S. cerevisiae), P25454; assay: SEC-SAXS; settings: remark: other sources report otherwise
T1 chain: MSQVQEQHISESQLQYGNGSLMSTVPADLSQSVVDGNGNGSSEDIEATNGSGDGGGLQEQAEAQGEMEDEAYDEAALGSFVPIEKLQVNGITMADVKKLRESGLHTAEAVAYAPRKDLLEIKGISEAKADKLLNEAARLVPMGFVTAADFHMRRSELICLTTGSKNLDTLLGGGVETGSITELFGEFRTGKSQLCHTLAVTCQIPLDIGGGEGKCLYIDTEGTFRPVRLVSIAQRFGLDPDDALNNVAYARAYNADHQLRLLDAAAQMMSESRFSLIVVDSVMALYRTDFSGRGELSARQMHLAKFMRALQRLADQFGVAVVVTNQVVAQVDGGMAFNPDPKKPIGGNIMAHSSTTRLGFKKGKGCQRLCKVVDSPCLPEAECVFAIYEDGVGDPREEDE

- loss of interaction (%) against WT Rad52 [1]: 30%
Molecule: Rad52-K340E-FLAG (natural protein)

- stoichiometry N [3]: 4
B1: Rad51 (full length, recombinant), P25454 1-400 (natural protein)
chain: T1 chain

The remaining lines, values behind:

Molecule: Rad52-T349A-FLAG (natural protein)
- loss of interaction (%) against WT Rad52 [1]: 85%

Molecule: Rad51 (full length, recombinant) (from UniProt P25454 1-400) (natural protein)
- stoichiometry N [2]: 1
